The source of these data is patent US20190324040A1.

Assay [1] addresses Zika virus (ZIKV), whole virus particles (Zika virus). Put plainly: cell-based or functional assay.
The target is the same in assay [2]. As to the kind of experiment: virus capture ELISA. For orientation: An ELISA detects its analyte on a solid surface through an enzyme-linked reagent.

B1: CC4 mAb (P1604) (antibody, V domains shown)
VH: VQLVQESGPGPVKPSETLSLTCTVSGGSISSYYWSWIRQPAGKGLEWIGRIYTSGSTNYNPSLKSRVTMSVDTSKNQFSLKLSSVTAADTAVYYCARESGSLYMDVWGKGTAVTVSS
VL: DVVMTQSPATLSLPPGERATLSCRASQSVSSYLAWYQQKPGQAPRLLIYDASNRATGIPARFSGSGSGTDFTLTISSLEPEDFAVYYCQQRSNWPLTFGGGTKVDIK
In the case of B1, the % of Zika virus Neutralized (Vero infectivity assay), antibody at 4 µg/ml in assay [1] came out at 19.3%. The ZIKV binding Abs 450 nm in assay [2] stood at 0.87 Abs 450 nm.
